This is an account of results in CN113840601A (dated 2021).

One assay addresses T1, 小鼠c-Met (mouse c-Met) (mouse, UniProt P16056 25-1379, limits assumed).
T1 construct: Endogenous mouse protein in the host animals; no construct described
The assay can be described thus: not described; stated in the results of the xenograft example as the reason why tolerability could not be assessed.

A further assay has as its target T2, 小鼠EGFR (mouse EGFR) (mouse, UniProt Q01279 25-1210, limits assumed).
T2 construct: Endogenous mouse protein in the host animals; no construct described
Described as above.

T1 sequence (P16056 25-1379 limits assumed): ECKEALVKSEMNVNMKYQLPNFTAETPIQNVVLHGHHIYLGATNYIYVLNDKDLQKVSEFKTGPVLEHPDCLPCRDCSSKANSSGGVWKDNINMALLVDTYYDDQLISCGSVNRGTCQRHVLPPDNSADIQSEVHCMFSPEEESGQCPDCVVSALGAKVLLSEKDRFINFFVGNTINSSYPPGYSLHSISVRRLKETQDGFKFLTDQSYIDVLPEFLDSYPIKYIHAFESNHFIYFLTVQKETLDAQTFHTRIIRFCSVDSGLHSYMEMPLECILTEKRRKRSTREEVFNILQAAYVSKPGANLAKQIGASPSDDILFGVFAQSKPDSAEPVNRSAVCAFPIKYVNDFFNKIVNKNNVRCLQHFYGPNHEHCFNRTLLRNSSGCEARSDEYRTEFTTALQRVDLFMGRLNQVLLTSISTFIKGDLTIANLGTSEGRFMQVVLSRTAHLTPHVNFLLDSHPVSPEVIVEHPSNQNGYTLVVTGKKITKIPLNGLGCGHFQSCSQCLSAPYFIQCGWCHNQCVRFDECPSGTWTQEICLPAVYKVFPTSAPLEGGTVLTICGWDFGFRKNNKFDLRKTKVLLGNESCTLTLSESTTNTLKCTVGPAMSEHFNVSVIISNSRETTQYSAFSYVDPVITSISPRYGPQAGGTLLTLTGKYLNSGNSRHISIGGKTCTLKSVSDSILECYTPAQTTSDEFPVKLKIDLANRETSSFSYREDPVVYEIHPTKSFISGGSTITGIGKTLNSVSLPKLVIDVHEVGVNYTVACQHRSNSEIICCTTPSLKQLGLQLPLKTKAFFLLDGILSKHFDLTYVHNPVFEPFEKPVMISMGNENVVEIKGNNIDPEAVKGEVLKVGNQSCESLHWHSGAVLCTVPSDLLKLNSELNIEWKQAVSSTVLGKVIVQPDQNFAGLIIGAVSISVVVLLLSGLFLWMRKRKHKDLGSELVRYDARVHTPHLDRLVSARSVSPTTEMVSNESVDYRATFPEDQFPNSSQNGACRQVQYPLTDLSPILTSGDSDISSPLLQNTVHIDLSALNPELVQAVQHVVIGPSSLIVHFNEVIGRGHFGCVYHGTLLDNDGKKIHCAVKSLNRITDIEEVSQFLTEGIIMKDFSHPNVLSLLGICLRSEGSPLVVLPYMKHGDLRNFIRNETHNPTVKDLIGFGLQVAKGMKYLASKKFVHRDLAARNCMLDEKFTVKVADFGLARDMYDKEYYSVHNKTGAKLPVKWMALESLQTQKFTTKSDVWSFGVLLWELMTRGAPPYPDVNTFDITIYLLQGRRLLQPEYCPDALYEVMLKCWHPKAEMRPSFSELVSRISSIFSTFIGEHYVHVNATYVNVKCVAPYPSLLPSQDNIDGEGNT

B1: JNJ-61186372 (bispecific antibody, human IgG1, kappa)
heavy 1: not shown
light 1: not shown
heavy 2: not shown
light 2: DIQMTQSPSSVSASVGDRVTITCRASQGISNWLAWFQHKPGKAPKLLIYAASSLLSGVPSRFSGSGSGTDFTLTISSLQPEDFATYYCQQANSFPITFGQGTRLEIKRTVAAPSVFIFPPSDEQLKSGTASVVCLLNNFYPREAKVQWKVDNALQSGNSQESVTEQDSKDSTYSLSSTLTLSKADYEKHKVYACEVTHQGLSSPVTKSFNRGEC
notes: also called CNTO4424
With B1, the binding result with 小鼠c-Met (mouse c-Met) and in the assay with 小鼠EGFR (mouse EGFR) was “no binding” in each case.
